Measurements reported in patent publication US12077763B2, “RNA-based control of powdery mildew” (Greenlight Biosciences, Inc., priority 2021, dated 2024).

B1: ES48: dsRNA trigger SEQ ID NO 111; gene target Hypotethical effector (nucleic acid)
DNA: AGTAGCAGCGGACATCGCCGACGGCCCTACACTGTCAGGGCTACCTGGGGTTGCAGATTTCGACTTGTCTTCAGCGTCCTCCCCAAGTCTCGAGAAAAGACTTTGTTTTAGACGAGGATGCAATAAAAAATCTAAACACGCATCAGGCTTCCAATGTAAGAAGAAACATTTCAGTCTGGCGGCGGTAGAAAAAGCAAAAGCCGTAGCCTGCGCAAAGATCAAAGAAAACAAGCAGCGCAATGCCTTTCCTGCTCTTTACACCGCAACCGATTTCGAAACTCCCGGGCCTTATCTAGAATGGCCAATCAAGCGCAATGGAAGATTTTGGAATAATTTGAGAAGAGGCCGTTACCGCATCATCCTAACCGAAAACTGCAAAGTTGTCGGTGCTGTGATCCGGAAAAGCAATGGTTCATACCGCACATGCAAGAAACTGAGCGAAAAAGATGAAGATGAAGTTGATGATGATGATGAAAAAGAA
B2: GS3336: sprayed dsRNA for which activity had been shown by leaf assay; presumably listed in Table 1B (nucleic acid)
sense: AAUGAUGUAAGCUCCAUGGGAAUUCAUAACCUGAGUGAGCAUCAAUAGCUUGGAAUAGUCGACAGAUAAUCCAACAAUACAUCGUAACUAAGUGAAGAUUGCCAGUUAUCAGACACCAUACAGUUGGCAUUAAGACUGUUCCUGCGCCAAGAACCAUUGUUUCUAUUGGUGAAGCAUAUUCAGCUGCUAGUCCGAAGGGUGCAGAGUAAUGAUGAUGUAUUUUAUGAAUAUGUUUGUAGAAAGGACCCCAAUGAAAUAAUCGAUGCAUCCAAUAAUGCCACGUAUCUUCCAACACGAAAAAGAAAGCAAUCUGAAGACACAUAGUUUUUAAUGAUGGAAAUGGGACACCAACAUCCAUACCACAAGCCUUUGUCAAUGGAUGAAAAAGCCAAAUUUGA
antisense: UCAAAUUUGGCUUUUUCAUCCAUUGACAAAGGCUUGUGGUAUGGAUGUUGGUGUCCCAUUUCCAUCAUUAAAAACUAUGUGUCUUCAGAUUGCUUUCUUUUUCGUGUUGGAAGAUACGUGGCAUUAUUGGAUGCAUCGAUUAUUUCAUUGGGGUCCUUUCUACAAACAUAUUCAUAAAAUACAUCAUCAUUACUCUGCACCCUUCGGACUAGCAGCUGAAUAUGCUUCACCAAUAGAAACAAUGGUUCUUGGCGCAGGAACAGUCUUAAUGCCAACUGUAUGGUGUCUGAUAACUGGCAAUCUUCACUUAGUUACGAUGUAUUGUUGGAUUAUCUGUCGACUAUUCCAAGCUAUUGAUGCUCACUCAGGUUAUGAAUUCCCAUGGAGCUUACAUCAUU
B3: GS1885: dsRNA trigger SEQ ID NO 213; gene target ribosomal processing RNA binding nucleolar protein (nucleic acid)
chain: TACGGATCGATAGACGGGTGAGTGAAAGATGAAGTGCAGGATTTTTCTCTATAAGTTTCTTACGTTGTAGCGCCGAAGCTTCTCTAAGTTTAATCTCTGATGGAGATAAAACGTTATATATAGGCGTACCAACAGCAATTGTCCCCTCTTTAAGTAGATATAACTTTCGCTTATCTTTGTCTCGGTCAGTGCGGAAGTTTGTCCCAGCTTCTGTAAGTTTTACAGCTTTTTCTCGATTAACTGCTCTTGACACTTGAAGTACGCGACCTTCTATTGTGTATAAGCCATTCTTATCAGCAGTTTCATCCTCTAAAATAGAGTTTTTAGCTTTAACAGCGTTTGCACCACTTTTGAAGGTACGAGGTGCACCATGGTAACAAGAGTCCGCATCTTCTTGTCTATAGAAGCAAACAAAGCCAGTGCCTTTAGGTCGACCAGTATTATTGTCTATGACCA

Assays:
E. necator = assay: Leaf disc assay, dry inoculum (settling tower), decrease in disease severity / hyphal growth (Example 2); settings: decrease in disease severity (hyphal growth) relative to untreated control, value ± SE; for % decrease =/− SE TP1: time point 1 (untreated control hyphal growth ≥50%); for % decrease =/− SE TP2: time point 2
[1] = system: GS1885, GS3336, GS1875, GS1879 transcripts; assay: Gene specific qRT-PCR of GS1885, GS3336, GS1875, GS1879 transcripts in leaf discs (Example 3); type: in vivo, E. necator; settings: six-days post inoculation, FIG. 4
Protocol: FIG. 4. Gene specific qRT-PCR analysis of GS1885, GS3336, GS1875, GS1879 transcripts at 6-dpi in leaf discs. The 2-ΔΔCT method was used to analyze the relative changes in gene expression. Gene expression was normalized to the untreated control. GS145 (a non-target dsRNA sequence) was also included as control. Asterisks denote significant differences compared to untreated control (UTC). Statistical comparisons between treatments were performed with ANOVA, followed by Welch's analysis.
qRT-PCR was performed to validate the effect of exogenous dsRNA on the expression of selected targeted genes for which activity of dsRNA had been shown by leaf assay (as described in Example 2). Samples were treated with dsRNA, inoculated after 24 hours and six leaf discs per treatment were collected at six-days post inoculation (dpi) for further analysis.

Molecule | % decrease =/− SE TP1 (E. necator) [%] | % decrease =/− SE TP2 (E. necator) [%] | gene silencing in E. necator by sprayed dsRNA / gene expression levels vs untreated control [1]
B1 | 15 ± 6 | 1 ± 3 | –
B2 | 72 ± 2 | 57 ± 4 | Induced Gene Silencing
B3 | 67 ± 4 | 58 ± 5 | Induced Gene Silencing
